# Where a chain is given by its changes, count along the chain named.
# B1: 2E1 × CD3 GPRC5D×CD3 κλ bispecific antibody (bispecific antibody, human IgG4, V domains shown)
# VH 1: QVQLVQSGAEVKKPGSSVKVSCKASGYTFTRYWMHWVREAPGQGLEWMGEFNPSNGRINYNEKFQGRVTLTIDKSSSTAYMELSSLRSEDTAVYYCTRGFAYWGQGTLVTVSS
# VL 1: EIVLTQSPATLSLSPGERATLSCRASSTVSYIHWYQKKPGQAPRRLIYDTSKLASGIPARFSGSGSGTDYTLTISSLEPEDFAVYYCQQWTTNPWTFGGGTKVEIK
# VH 2: EVQLVESGGGLVQPGGSLRLSCAASGFTFNTYAMNWVRKAPGKGLEWVGRIRSKYNNYATYYADSVKDRFTISRDDSKNSLYLQMNSLKTEDTAVYYCVRHGNFGNSYVSWFAYWGQGTLVTVSS
# VL 2: QAVVTQEPSLTVSPGGTVTLTCRSSTGAVTTSNYANWVQEKPGQAPRGLIGGTNKRAPWTPARFSGSLLGGKAALTITGAQAEDEAEYYCVLWYSNLWVFGGGTKLTVL
# notes: Human IgG4 knob-into-hole Fc with Ser228Pro, Leu235Glu, Pro329Ala; kappa light chain on the GPRC5D arm, lambda on the CD3 arm
# B2: 2F1 × CD3 GPRC5D×CD3 κλ bispecific antibody (bispecific antibody, human IgG4 S228P, kappa, lambda)
# heavy 1: QVQLVQSGAEVKKPGSSVKVSCKASGYSFTGYTMNWVREAPGQGLEWMGLINPYNGGTRYNQKFQGRVTLTVDKSSSTAYMELSSLRSEDTAVYYCARWALRYGMDYWGQGTLVTVSSASTKGPSVFPLAPCSRSTSESTAALGCLVKDYFPEPVTVSWNSGALTSGVHTFPAVLQSSGLYSLSSVVTVPSSSLGTKTYTCNVDHKPSNTKVDKRVESKYGPPCPPCPAPEFEGGPSVFLFPPKPKDTLMISRTPEVTCVVVDVSQEDPEVQFNWYVDGVEVHNAKTKPREEQFNSTYRVVSVLTVLHQDWLNGKEYKCKVSNKGLASSIEKTISKAKGQPREPQVCTLPPSQEEMTKNQVSLSCAVKGFYPSDIAVEWESNGQPENNYKTTPPVLDSDGSFFLVSKLTVDKSRWQEGNVFSCSVMHEALHNHYTQKSLSLSLGK
# light 1: DIQMTQSPSSLSASVGDRVTITCRASQNVGTNVAWYQKKPGKAPKALIYSASYRNSGVPSRFSGSGSGTDFTLTISSLQPEDFATYFCQQYNSYLLTFGGGTKVEIKRTVAAPSVFIFPPSDEQLKSGTASVVCLLNNFYPREAKVQWKVDNALQSGNSQESVTEQDSKDSTYSLSSTLTLSKADYEKHKVYACEVTHQGLSSPVTKSFNRGEC
# heavy 2: EVQLVESGGGLVQPGGSLRLSCAASGFTFNTYAMNWVRKAPGKGLEWVGRIRSKYNNYATYYADSVKDRFTISRDDSKNSLYLQMNSLKTEDTAVYYCVRHGNFGNSYVSWFAYWGQGTLVTVSSASTKGPSVFPLAPCSRSTSESTAALGCLVKDYFPEPVTVSWNSGALTSGVHTFPAVLQSSGLYSLSSVVTVPSSSLGTKTYTCNVDHKPSNTKVDKRVESKYGPPCPPCPAPEFEGGPSVFLFPPKPKDTLMISRTPEVTCVVVDVSQEDPEVQFNWYVDGVEVHNAKTKPREEQFNSTYRVVSVLTVLHQDWLNGKEYKCKVSNKGLASSIEKTISKAKGQPREPQVYTLPPCQEEMTKNQVSLWCLVKGFYPSDIAVEWESNGQPENNYKTTPPVLDSDGSFFLYSKLTVDKSRWQEGNVFSCSVMHEALHNHYTQKSLSLSLGK
# light 2: QAVVTQEPSLTVSPGGTVTLTCRSSTGAVTTSNYANWVQEKPGQAPRGLIGGTNKRAPWTPARFSGSLLGGKAALTITGAQAEDEAEYYCVLWYSNLWVFGGGTKLTVLGQPKAAPSVTLFPPSSEELQANKATLVCLISDFYPGAVTVAWKADSSPVKAGVETTTPSKQSNNKYAASSYLSLTPEQWKSHRSYSCQVTHEGSTVEKTVAPTECS
# notes: Human IgG4 knob-into-hole, Ser228Pro, Leu235Glu, Pro329Ala; also called parent 2F1×CD3 bispecific antibody
# B3: 4B1 × CD3 GPRC5D×CD3 κλ bispecific antibody (bispecific antibody, human IgG4, V domains shown)
# VH 1: QAQLVQSGAEVKKPGSSVKVSCKASGYTFTSYNMHWVREAPGQGLEWMGYIYPGNGGTNYNQKFQGRVTLTADTSSSTAYMELSSLRSEDTAVYFCARGYGYRYWYFDVWGQGTLVTVSS
# VL 1: B1 VL 1 with T28S, I32M, T91S, T92N, N93Y, W95P
# VH 2: B1 VH 2
# VL 2: B1 VL 2
# notes: Human IgG4 knob-into-hole Fc with Ser228Pro, Leu235Glu, Pro329Ala
# B4: 4D3 × CD3 GPRC5D×CD3 κλ bispecific antibody (bispecific antibody, human IgG4, V domains shown)
# VH 1: QVQLVQSGAEVKKPGSSVKVSCKASGYTFTNFPIEWMREAPGQGLEWMGNFHPYNDVTKYNEKFQGRVTLTVDKSSSTVYMELSSLRSEDTAVYYCALITRGYWGQGTLVTVSS
# VL 1: DIVMTQSPDSLAVSLGERATINCKSSQSLLYSRNQKNSLAWYQKKPGQPPKLLIYWASTRESGVPDRFSGSGSGTDFTLTISSLQAEDVAVYYCQQYYSYPLTFGQGTKLEIK
# VH 2: B1 VH 2
# VL 2: B1 VL 2
# notes: as for B3
# B5: 8D1 × CD3 GPRC5D×CD3 κλ bispecific antibody (bispecific antibody, human IgG4, V domains shown)
# VH 1: QVQLVQSGAEVKKPGSSVKVSCKASGYTFTSYYMYWVREAPGQGLEWMGGINPSNGGTKYNEKFQGRVTLTVDKSSSTAYMELSSLRSEDTAVYYCTRGSLRSYYYAMDYWGQGTLVTVSS
# VL 1: DIQMTQSPSSLSASVGDRVTITCQASQDISNYLNWYQKKPGKAPKLLIYYTSRLHSGVPSRFSGSGSGTDYTFTISSLQPEDIATYFCQQGYSLPYTFGQGTKLEIK
# VH 2: B1 VH 2
# VL 2: B1 VL 2
# notes: as for B3
# B6: 15D1 × CD3 GPRC5D×CD3 κλ bispecific antibody (bispecific antibody, human IgG4, V domains shown)
# VH 1: QVQLVQSGAEVKKPGSSVKVSCKASGYTFTNYVMHWVKEKPGQGLEWMGYINPYNDGTKYNEKFQGRVTLTSDKSSNTAYMELSSLRSEDTAVYYCARGGVRRYFDYWGQGTLVTVSS
# VL 1: DIQMTQSPSSLSASVGDRVTITCRASQDIGSNLNWLQKEPGKAPKRLIYATSSLDSGVPSRFSGSRSGSDYTLTISSLQPEDFATYYCLQYASFPYTFGQGTKLEIK
# VH 2: B1 VH 2
# VL 2: B1 VL 2
# notes: as for B3
# B7: anti-GPRC5D chimeric antibody 6H1 (antibody, V domains shown)
# VH: QAYLQQSGAELVRSGASVKMSCKASGYTFTSYNMHWVKQTPGQGLEWIGYIYPGNGGTNYNQKFKGKATLTADTSSSTAYMQISSLTSEDSAVYFCARGYGYRYWYFDVWGTGTTVTVSS
# VL: QIVLTQSPAIMSASPGEKVTMTCSASSSVSYMHWYQQKSGTSPKRWIYDTSKLASGVPARFSGSGSGTSYSLTISSMEAEDAATYYCQQWNSKPPTFGSGTKLEIK
# B8: anti-GPRC5D chimeric antibody 4B1 (antibody, V domains shown)
# VH: B7 VH with K63N, T112A
# VL: B7 VL with A59V, N91S, S92N, K93Y
# B9: anti-GPRC5D chimeric antibody 15D1 (antibody, V domains shown)
# VH: EVQLQQSGPELGKPGASVKMSCKASGYTFTNYVMHWVKQKPGQGLEWIGYINPYNDGTKYNEKFKGKATLTSDKSSNTAYMELSSLTSEDSAVYYCARGGVRRYFDYWGQGTTLTVSS
# VL: DIQMTQSPSSLSASLGERVSLTCRASQDIGSNLNWLQQEPDGTIKRLIYATSSLDSGVPKRFSGSRSGSDYSLTISSLESEDFVDYYCLQYASFPYTFGGGTKLEIK
# Target: T1, human GPRC5D (human, UniProt Q9NZD1 1-345)
# T1 sequence (Q9NZD1 whole entry): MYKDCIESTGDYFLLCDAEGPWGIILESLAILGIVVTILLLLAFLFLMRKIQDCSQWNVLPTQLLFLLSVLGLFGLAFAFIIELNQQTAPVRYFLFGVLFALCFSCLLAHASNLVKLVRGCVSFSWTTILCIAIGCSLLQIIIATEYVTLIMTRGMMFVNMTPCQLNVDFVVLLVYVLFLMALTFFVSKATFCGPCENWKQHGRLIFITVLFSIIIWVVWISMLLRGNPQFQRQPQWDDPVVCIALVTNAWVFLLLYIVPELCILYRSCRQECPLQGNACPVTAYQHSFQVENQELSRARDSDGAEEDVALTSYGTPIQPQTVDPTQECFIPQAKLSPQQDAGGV
# Experiment: cell-based or functional assay
row,Binder,"TDCC EC50 (pM), MM.1R [pM]"
1,B1,161
2,B2,0.65
3,B3,6.95
4,B4,6.18
5,B5,32.9
6,B6,96.5

# Target: T1, human GPRC5D
# Experiment: flow cytometry, MM.1R cells
# Method: The cell suspension was adjusted to a concentration of 5×10⁵ cells/mL, and 100 μL per well was added to a 96-well U-shaped plate, centrifuged at 300 g for 5 min. The supernatant was discarded. 100 μL per well of serially diluted antibody was added (initial concentration: 200 nM, 3-fold dilution, 10 gradients), and incubated at 4° C. for 60 min. The primary antibody was washed away, and 50 μL/well Alexa Fluro647 labeled goat anti-human IgG FC (1:300 dilution) was added, and incubated for 20 min. After washing once, 50 μL/well of PI was added, incubated for 5 min, and detected by flow cytometry.
Binder,EC50 [nM],"Maximum fluorescence intensity (MFI, 200 nM) [MFI]"
B1,6.88,65700
B2,1.51,94600
B3,3.35,70900
B4,10.7,110000
B5,3.34,89000
B6,,12800

# Target: T1, human GPRC5D
# Experiment: flow cytometry on CHO-hGPRC5D cells
# Method: (§1) The binding of the antibodies to human and Cynomolgus GPRC5D stably transfected cells was detected by flow cytometry. […] Then, 100 μl/well of the cell suspension was added to a 96-well U-shaped plate, and centrifuged at 300 g for 5 min. The supernatant was discarded. 100 μL per well of serially diluted antibody was added (initial concentration: 200 nM, 3-fold dilution, 12 gradients), and incubated at 4° C. for 45 min. The secondary antibody 50 μL/well of Alexa Fluro647 labeled goat anti-human IgG Fc (1:300 dilution) was added, incubated on ice for 45 min, and detected by flow cytometry.
Binder,binding result,EC50 (read off the curve) [nM]
B7,binds,
B8,,~0.6
B9,,~0.1

# Target: T2, Cynomolgus GPRC5D (Cynomolgus, UniProt Q9NZD1 1-343 (human entry))
# T2 construct: Full length, on stably transfected cells (HEK293-cyGPRC5D, CHO-cyGPRC5D); also called cyGPRC5D
# T2 chain: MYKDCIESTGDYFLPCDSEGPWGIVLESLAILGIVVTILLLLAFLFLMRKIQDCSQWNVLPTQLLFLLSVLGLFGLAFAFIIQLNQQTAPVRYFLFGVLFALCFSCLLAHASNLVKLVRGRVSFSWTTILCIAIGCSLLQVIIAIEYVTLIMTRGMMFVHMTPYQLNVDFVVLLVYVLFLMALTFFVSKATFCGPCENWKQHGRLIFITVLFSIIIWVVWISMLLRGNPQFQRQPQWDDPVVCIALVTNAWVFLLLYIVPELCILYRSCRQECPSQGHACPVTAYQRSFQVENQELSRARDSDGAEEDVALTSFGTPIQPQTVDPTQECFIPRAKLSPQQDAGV
# Experiment: flow cytometry on CHO-cyGPRC5D cells
# Method: as §1
row,Binder,binding result
1,B7,binds
2,B8,binds
3,B9,binds

# Source: patent US20260116966A1 (KEYMED BIOSCIENCES CHENGDU, published 2026)
